Results published in paper PMC7183857.
Like-named read-outs stand apart in the source and are kept apart here.

Legend:
Assay in all cases: co-sedimentation
[1] = target: A14C/E45C disulfide-crosslinked CA tubes (HIV-1)
[2] = target: A14C/E45C disulfide-crosslinked CA tubes (HIV-1); remark: listed apart in the source
[3] = target: CA_(14C/45C/E213A) tubes (HIV-1)
[4] = target: CA_(14C/45C/E71A) tubes (HIV-1)
[5] = target: CA_(14C/45C/E75A) tubes (HIV-1)

MxB_(1–35)-MBPdi (from UniProt P20592 1-35)
percent binding [1]: 20%
percent binding [2]: 80%
percent bound [2]: > 90%
percent co-pelleted [2]: > 90%
binding as percent of WT CA tubes [3]: 40 % of WT
binding as percent of WT CA tubes [4]: 60 % of WT
binding as percent of WT CA tubes [5]: 60 % of WT
